Data as given in patent US20140363438A1, “NEUREGULIN ANTIBODIES AND USES THEREOF” (Genentech, Inc., priority 2011, published 2014).
Substitutions are numbered along the chain they refer to. Each block holds one binder with its values, some of them ahead of it.

Key:
[1] = molecular target: T1, Recombinant human NRG1-α EGF domain (R&D Systems, cat#296-HR/CF) (human, UniProt Q02297 177-241); assay: SPR (BIAcore T100), IgG captured by anti-human Fc, NRG1α injected; table under the head '250 nM NRG1-alpha'
T1 construct: also called NRG1-alpha; HRG1α
T1 sequence: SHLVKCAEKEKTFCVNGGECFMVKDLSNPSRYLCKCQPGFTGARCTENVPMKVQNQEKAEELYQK
Description: (§1) Binding affinities of anti-NRG1 IgGs were measured by Surface Plasmon Resonance (SRP) using a BIAcore™-T100 instrument. Anti-NRG1 human IgGs were captured by mouse anti-human Fc antibody (GE Healthcare, cat# BR-1008-39) coated on CM5 biosensor chips to achieve approximately 1000 response units (RU). […] Association rates (kₒₙ) and dissociation rates (koff) were calculated using a simple one-to-one Langmuir binding model (BIAcore Evaluation Software version 3.2). The equilibrium dissociation constant (KD) was calculated as the ratio koff/kₒₙ.

[2] = molecular target: T1, Recombinant human NRG1-α EGF domain …; assay: SPR (BIAcore T100), IgG captured by anti-human Fc, NRG1α (HRG-alpha) injected; sensorgram shown for 7.8 nM (sheet: '7.8 mnM HRG alpha')
Description: as §1

[3] = molecular target: T2, Recombinant human NRG1-β ECD domain (R&D Systems, cat#377-HB/CF) (human, UniProt Q02297-11 121-191, limits assumed); assay: SPR (BIAcore T100), IgG captured by anti-human Fc; table under the head '125nM NRG-beta'; this table is identical to that of FIG. 9 (NRG1-alpha) and does not fit the slow dissociation of the sensorgrams above it
T2 construct: also called NRG1-beta; HRG1β
T2 sequence: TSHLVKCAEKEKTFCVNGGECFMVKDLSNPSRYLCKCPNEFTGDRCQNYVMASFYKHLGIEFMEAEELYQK

[4] = molecular target: T2, Recombinant human NRG1-β ECD domain …; assay: SPR (BIAcore T100), IgG captured by anti-human Fc, NRG1β (HRG-beta) injected; sensorgram shown for 7.8 nM (sheet: '7.8 mnM HRG beta')
Description: as §1

B1: anti-NRG1 antibody 538.24 (antibody, human IgG1, V domains shown)
VH: EVQLVESGGGLVQPGGSLRLSCAASGFTFSGTWIHWVRQAPGKGLEWVAAITPADGSTNYADSVKGRFTISADTSKNTAYLQMNSLRAEDTAVYYCATYMFAMDYWGQGTLVTVSS
VL: DIQMTQSPSSLSASVGDRVTITCRASQDVSTAVAWYQQKPGKAPKLLIYSASFLYSGVPSRFSGSGSGTDFTLTISSLQPEDFATYYCQQSYTTPPTFGQGTKVEIKR
notes: also called YW538.24
Kd [1]: > 400 nM

B3: anti-NRG1 antibody 538.24.36 (antibody, human IgG1, V domains shown)
VH: B1 VH
VL: DIQMTQSPSSLSASVGDRVTITCRASQNVDRSLAWYQQKPGKAPKLLIYAASSLESGVPSRFSGSGSGTDFTLTISSLQPEDFATYYCQQHYTLPFTFGQGTKVEIKR
notes: also called YW538.24.36
Kd [3]: 13.2 nM | koff [3]: 0.0252 s⁻¹ | kon [3]: 1.91e+06 M⁻¹ s⁻¹ | Kd [1]: 13.2 nM | koff [1]: 0.0252 s⁻¹ | kon [1]: 1.91e+06 M⁻¹ s⁻¹

The remaining lines, values ahead:

Kd [2]: 1.74 nM | koff [2]: 0.00674 s⁻¹ | kon [2]: 3.87e+06 M⁻¹ s⁻¹ | Kd [3]: 1.96 nM | kon [3]: 480000 M⁻¹ s⁻¹ | Kd [4]: 0.109 nM | koff [4]: 7.34e-05 s⁻¹ | kon [4]: 674000 M⁻¹ s⁻¹
B2: anti-NRG1 antibody 538.24.94 (antibody, human IgG1, V domains shown)
VH: B1 VH
VL: B3 VL with N28D, D30K, R31K, A50G, S53N, F96L
notes: also called YW538.24.94

Kd [3]: 5.18 nM | koff [3]: 0.0081 s⁻¹ | kon [3]: 1.56e+06 M⁻¹ s⁻¹ | Kd [1]: 5.18 nM | koff [1]: 0.0081 s⁻¹ | kon [1]: 1.56e+06 M⁻¹ s⁻¹
B4: anti-NRG1 antibody 538.24.17 (antibody, human IgG1, V domains shown)
VH: B1 VH
VL: B1 VL with T93W, T94M
notes: also called YW538.24.17
